Test results from the Human Domainome abundance scans (Beltran et al. 2025).

B1: Membrane-associated guanylate kinase, WW and PDZ domain-containing protein 3, residues 287 to 329; numbered along this chain, Q5TCQ9 (parent)
chain: MRDETLEPLPKNWEMAYTDTGMIYFIDHNTKTTTWLDPRLCKK

Variants of: B1
Assay: abundance fitness (aPCA) (normalised: wild type 0, dead -1); higher = more abundant; growth selection in yeast, the domain comes from the species named
Details: Homo sapiens

Abundance fitness of substitutions, site by site:
T33: M -0.315; D -0.648; P -0.684; I -0.519; Y -0.447; K -0.388; G -0.551; F -0.584; H -0.535; S -0.187; V -0.298; R -0.351; C -0.142; L -0.496; N -0.418; W -0.445; Q -0.417; E -0.442
I26: T -0.437; Y -0.479; R -0.321; W -0.648; Q -0.485; G -0.657; E -0.543; L -0.097; S -0.634; D -0.659; P -0.868; C -0.352; K -0.196
T32: Q -0.137; A -0.207; N -0.215; C -0.101; V -0.082; D -0.47; W -0.52; H -0.438; G -0.357; L -0.152; R -0.206; M -0.071; P -0.879; K -0.303; Y -0.417; I -0.11; E -0.328
F25: W -0.077
T30: K -0.155; M -0.21; S -0.051; C -0.271; I -0.423; W -0.572; L -0.207; E -0.265; G -0.314; A -0.116; P -0.887; Q -0.139; D -0.281
L36: I -0.07; A -0.044; D -0.183; F -0.088; C -0.099; E -0.097; N -0.121; M -0.001; G -0.144; H -0.037
T34: P -0.906; Q -0.28; S -0.106; K -0.719; I -1.02; W -0.743; A -0.632; R -0.71; M -0.62; E -0.677; G -0.667; L -1.21; N -0.661; Y -0.982; V -0.924; C -0.64
K31: G -0.09; D -0.205; W -0.278; H 0.018; P -0.812; I -0.674; Q -0.004; V -0.385; E -0.035; N -0.159; C -0.09; Y -0.369; T -0.214; M -0.071; R -0.017; L -0.182
W35: E -0.361; L -0.146; Y 0.126; R -0.266; V -0.291; A -0.248; N -0.339; T -0.104; P -0.34; S -0.199; I -0.257; C -0.222; D -0.359; H -0.447; G -0.341; M -0.16; Q -0.232; F 0.074
H28: P -0.364; Q -0.306; S -0.28; D -0.53; E -0.511; I -0.328; M -0.386; G -0.275; L -0.379; T -0.214; A -0.323; V -0.273; R -0.164
D27: V -1.01; R -1.03; A -0.789; W -1.07; Y -0.119; M -0.766; L -1.11; C -0.403; S -0.644; E -0.266; G -0.903; K -0.98; T -1.08; N -0.238; P -1.12; F -0.716
N29: R -0.078; P -0.525; S -0.103; C -0.132; V -0.094; M -0.142; I -0.194; E -0.03; A -0.074; K -0.105; H -0.248; F -0.152; D -0.141; T -0.051; Q -0.089; G -0.069
